Experimental data published in paper PMC2749713.

Columns and labels:
[1] = molecular target: Sgo1(51-96) peptide (human) (UniProt Q5FBB7); test: crystal structure
[2] = molecular target: AB’C PP2A holoenzyme with GST-tagged A subunit (GST-A, B’ and C subunits) (human) (UniProt P30153); test: pull-down
Sequence of AB’C PP2A holoenzyme with GST-tagged A subunit (GST-A, B’ and C subunits) (human) (P30153 2-589, chain 1 of 3): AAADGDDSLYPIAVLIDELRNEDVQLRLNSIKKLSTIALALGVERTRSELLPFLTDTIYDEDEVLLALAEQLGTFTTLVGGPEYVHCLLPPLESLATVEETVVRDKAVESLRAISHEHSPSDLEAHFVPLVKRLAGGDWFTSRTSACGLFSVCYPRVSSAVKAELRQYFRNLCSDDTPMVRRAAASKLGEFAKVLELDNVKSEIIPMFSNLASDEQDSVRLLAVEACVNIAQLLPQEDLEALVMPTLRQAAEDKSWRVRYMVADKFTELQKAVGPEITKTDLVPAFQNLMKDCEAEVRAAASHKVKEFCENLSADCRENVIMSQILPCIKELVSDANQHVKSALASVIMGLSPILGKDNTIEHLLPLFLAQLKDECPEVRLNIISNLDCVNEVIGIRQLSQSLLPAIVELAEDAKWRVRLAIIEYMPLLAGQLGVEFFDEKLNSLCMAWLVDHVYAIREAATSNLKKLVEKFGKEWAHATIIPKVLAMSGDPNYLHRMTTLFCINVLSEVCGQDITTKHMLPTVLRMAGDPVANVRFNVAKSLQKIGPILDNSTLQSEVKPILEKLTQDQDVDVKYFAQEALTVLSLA
Sequence of AB’C PP2A holoenzyme with GST-tagged A subunit (GST-A, B’ and C subunits) (human) (Q13362 whole entry, chain 2 of 3, further chain): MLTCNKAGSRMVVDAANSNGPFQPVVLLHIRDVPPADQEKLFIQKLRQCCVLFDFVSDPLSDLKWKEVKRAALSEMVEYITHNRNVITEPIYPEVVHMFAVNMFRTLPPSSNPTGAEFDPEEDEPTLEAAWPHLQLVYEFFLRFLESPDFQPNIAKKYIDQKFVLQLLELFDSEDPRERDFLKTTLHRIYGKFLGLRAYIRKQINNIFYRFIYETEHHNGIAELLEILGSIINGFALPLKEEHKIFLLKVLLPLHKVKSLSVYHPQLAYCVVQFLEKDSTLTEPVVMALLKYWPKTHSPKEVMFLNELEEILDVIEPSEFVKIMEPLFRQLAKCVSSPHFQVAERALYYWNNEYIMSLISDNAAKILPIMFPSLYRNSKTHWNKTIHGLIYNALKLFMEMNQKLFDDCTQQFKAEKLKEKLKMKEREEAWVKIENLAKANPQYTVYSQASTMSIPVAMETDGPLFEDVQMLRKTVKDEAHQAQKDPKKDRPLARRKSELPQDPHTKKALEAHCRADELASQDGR
Sequence of AB’C PP2A holoenzyme with GST-tagged A subunit (GST-A, B’ and C subunits) (human) (P67775 whole entry, chain 3 of 3, further chain): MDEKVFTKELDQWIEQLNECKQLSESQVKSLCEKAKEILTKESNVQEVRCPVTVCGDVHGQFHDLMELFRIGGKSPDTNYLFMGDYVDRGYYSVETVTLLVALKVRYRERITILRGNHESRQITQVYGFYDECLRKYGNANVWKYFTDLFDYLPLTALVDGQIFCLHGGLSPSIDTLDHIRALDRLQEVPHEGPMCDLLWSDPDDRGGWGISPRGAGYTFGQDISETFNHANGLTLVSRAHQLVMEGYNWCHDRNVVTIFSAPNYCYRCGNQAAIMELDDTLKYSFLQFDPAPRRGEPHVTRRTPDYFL

Substance	stoichiometry N [1]	stoichiometry N (Sgo2 per PP2A) [2]
Sgo1(51-96) peptide (from UniProt Q5FBB7 51-96)	2	
MBP-Sgo2(45-117) (from UniProt Q7TSY8 45-117) (domain or fragment)		2
